Source: patent US20040147006

Tests used:
[1] = system: unphosphorylated peptide T-2 13 (SEQ ID NO: 3)
[2] = system: phosphorylated T-ag peptide of SEQ ID NO: 15 used in the ATPase assay
[3] = system: phosphorylated peptide E1-P1 25 (SEQ ID NO: 18)
[4] = system: unphosphorylated peptide E1-P2 25 (SEQ ID NO: 2)

Substance: SV40 T-antigen (T-ag)
- ATPase of T-ag (32P-ATP hydrolysis, TLC autoradiography) [1]: this peptide inhibited the ATPase of T-ag
- ATPase of T-ag (32P-ATP hydrolysis, TLC autoradiography) [2]: the phosphorylated peptide did not modulate the ATPase of T-ag activity
- ATPase of T-ag (32P-ATP hydrolysis, TLC autoradiography) [3]: had no effect
- ATPase of T-ag (32P-ATP hydrolysis, TLC autoradiography) [4]: blocked the degradation of ATP by T-ag
